Results on two molecules are retold here after patent US20250122303A1, “TREATMENT AND PREVENTION OF CANCER USING HER3 ANTIGEN-BINDING MOLECULES” (Hummingbird Bioscience Pte. Ltd., priority 2021, published 2025).

Assay [1] has as its target FcRn (human) (UniProt P55899). Briefly: Bio-Layer Interferometry (determined as described in Example 7). A general note: In BLI a coated tip is dipped into the sample, and binding shifts an interference pattern.
Assay [2] concerns the target FcgRIIA (H167) (human) (UniProt P12318). Described as above.
Assay [3] addresses FcgRIIA (R167) (human) (UniProt P12318). The assay is described as above.
For assay [4], the target named is FcgRIIB (human) (UniProt P31994). The assay is described as above.
Assay [5] addresses His-tagged FcγRIIIa (V158) (human) (UniProt P08637). Described as above.
Assay [6] has as its target moFcRn (mouse) (UniProt Q61559). The description is as above.
Assay [7] deals with human HER3:human NRG1 complex (human) (UniProt P21860). The assay can be described thus: BLI (Octet QK384), antibody captured on AHC sensors, HER3-NRG1 complex (1:1 molar ratio) in solution.
In assay [8] the target is recombinant biotinylated human HER3 protein (human) (UniProt P21860). Briefly: plate ELISA dimerisation assay; human EGFR-His coated, constant HER3-biotin and NRG, antibody varied; blocked partner EGFR-His.
Assay [9] concerns the target His-tagged human HER3 (human) (UniProt P21860). Briefly: BLI competition: His-tagged human HER3 on anti-Penta-HIS tips saturated with LJM-716 (400 nM), then MM-121 as competing antibody (300 nM); no unit in the table, the y axis of FIG. 14A is Shift (nm).

FcgRIIA (R167) (human), sequence (P12318 36-218 H167R limits assumed): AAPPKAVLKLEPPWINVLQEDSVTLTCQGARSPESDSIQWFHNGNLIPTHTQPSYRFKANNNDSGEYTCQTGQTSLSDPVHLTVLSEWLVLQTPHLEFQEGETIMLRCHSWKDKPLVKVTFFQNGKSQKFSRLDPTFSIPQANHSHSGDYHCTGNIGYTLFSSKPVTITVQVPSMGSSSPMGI
FcgRIIA (H167) (human), sequence (P12318 36-218 limits assumed): as the sequence (P12318 36-218 H167R limits assumed) above, with R132H counted along it
FcgRIIB (human), sequence (P31994 46-217 limits assumed): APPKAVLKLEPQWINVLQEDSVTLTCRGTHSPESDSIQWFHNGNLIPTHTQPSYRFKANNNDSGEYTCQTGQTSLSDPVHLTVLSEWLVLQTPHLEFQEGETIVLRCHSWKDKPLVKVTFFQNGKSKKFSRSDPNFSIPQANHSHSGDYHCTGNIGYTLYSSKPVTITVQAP

B1: MM-121 (antibody, INN chains, looked up, human IgG2)
heavy: EVQLLESGGGLVQPGGSLRLSCAASGFTFSHYVMAWVRQAPGKGLEWVSSISSSGGWTLYADSVKGRFTISRDNSKNTLYLQMNSLRAEDTAVYYCTRGLKMATIFDYWGQGTLVTVSSASTKGPSVFPLAPCSRSTSESTAALGCLVKDYFPEPVTVSWNSGALTSGVHTFPAVLQSSGLYSLSSVVTVPSSNFGTQTYTCNVDHKPSNTKVDKTVERKCCVECPPCPAPPVAGPSVFLFPPKPKDTLMISRTPEVTCVVVDVSHEDPEVQFNWYVDGVEVHNAKTKPREEQFNSTFRVVSVLTVVHQDWLNGKEYKCKVSNKGLPAPIEKTISKTKGQPREPQVYTLPPSREEMTKNQVSLTCLVKGFYPSDIAVEWESNGQPENNYKTTPPMLDSDGSFFLYSKLTVDKSRWQQGNVFSCSVMHEALHNHYTQKSLSLSPG
light: QSALTQPASVSGSPGQSITISCTGTSSDVGSYNVVSWYQQHPGKAPKLIIYEVSQRPSGVSNRFSGSKSGNTASLTISGLQTEDEADYYCCSYAGSSIFVIFGGGTKVTVLGQPKAAPSVTLFPPSSEELQANKATLVCLVSDFYPGAVTVAWKADGSPVKVGVETTKPSKQSNNKYAASSYLSLTPEQWKSHRSYSCRVTHEGSTVEKTVAPAECS
Take B1: the Kd was 11.5 nM in assay [1]; 222 nM in [2]; 243 nM in [3]; 1440 nM in assay [4]; 7050 nM in [5]; 6.69 nM in assay [6]. Further, in [7], the Kd worked out at 1.92 nM. In addition, the koff in [7] worked out at 0.000231 s⁻¹. Besides, in assay [7], the kon is 120000 M⁻¹ s⁻¹. In addition, in assay [8], the IC50 turned out to be 54.2 nM. Further, the response of the competing antibody (competition table) in assay [9] turned out to be 0.693.

B2: LJM716 (antibody, INN chains, looked up, human IgG1, V domains shown)
VH: EVQLLESGGGLVQPGGSLRLSCAASGFTFSSYAMSWVRQAPGKGLEWVSAINSQGKSTYYADSVKGRFTISRDNSKNTLYLQMNSLRAEDTAVYYCARWGDEGFDIWGQGTLVTVSS
VL: DIQMTQSPSSLSASVGDRVTITCRASQGISNWLAWYQQKPGKAPKLLIYGASSLQSGVPSRFSGSGSGTDFTLTISSLQPEDFATYYCQQYSSFPTTFGQGTKVEIK
With B2, the Kd in assay [7] amounted to 16.8 nM.

By Kd is commonly meant the equilibrium constant for the complex coming apart. The koff is a measure of how fast the partners let go of each other. Broadly, the kon is the rate constant with which the complex forms. Broadly, the IC50 is the point on the concentration scale where inhibition reaches its midpoint.
